The target of test [1] is His6X-Hsp20KKK (IAI motif 209-211 mutated to KKK) (Ustilago maydis). The test can be described thus: SEC.
The target of test [2] is Ustilago maydis Hsp20, recombinant His6X-Hsp20 (Ustilago maydis). The test can be described thus: SEC.
Test [3] shares this target. The test can be described thus: SEC. The source holds these as a separate data set.
Another test has as its target actin (Alexa 488 tagged). The test can be described thus: FRET or BRET.

Where two headings read alike, the source gives them in different places.

Take “His6X-Hsp20KKK (IAI motif 209-211 mutated to KKK) (natural protein)”: the stoichiometry N in test [1] was 2.
As to “Ustilago maydis Hsp20, recombinant His6X-Hsp20 (natural protein)”, the stoichiometry N in test [2] was determined as 18; in test [3] it was 2. The Kd with actin (Alexa 488 tagged) was found to be 99.6 nM.

The values above are taken from paper doi:10.1101/2024.11.08.622622.
